# B1: Mothers against decapentaplegic homolog 4 (Homo sapiens), Q13485 (parent)
# chain: MDNMSITNTPTSNDACLSIVHSLMCHRQGGESETFAKRAIESLVKKLKEKKDELDSLITAITTNGAHPSKCVTIQRTLDGRLQVAGRKGFPHVIYARLWRWPDLHKNELKHVKYCQYAFDLKCDSVCVNPYHYERVVSPGIDLSGLTLQSNAPSSMMVKDEYVHDFEGQPSLSTEGHSIQTIQHPPSNRASTETYSTPALLAPSESNATSTANFPNIPVASTSQPASILGGSHSEGLLQIASGPQPGQQQNGFTGQPATYHHNSTTTWTGSRTAPYTPNLPHHQNGHLQHHPPMPPHPGHYWPVHNELAFQPPISNHPAPEYWCSIAYFEMDVQVGETFKVPSSCPIVTVDGYVDPSGGDRFCLGQLSNVHRTEAIERARLHIGKGVQLECKGEGDVWVRCLSDHAVFVQSYYLDREAGRAPGDAVHKIYPSAYIKVFDLRQCHRQMQQQAATAQAAAAAQAAAVAGNIPGPGSVGGIAPAISLSAAAGIGVDDLRRLCILRMSFVKGWGPDYPRQSIKETPCWIEIHLHRALQLLDEVLHTMPIADPQPLD
# partner: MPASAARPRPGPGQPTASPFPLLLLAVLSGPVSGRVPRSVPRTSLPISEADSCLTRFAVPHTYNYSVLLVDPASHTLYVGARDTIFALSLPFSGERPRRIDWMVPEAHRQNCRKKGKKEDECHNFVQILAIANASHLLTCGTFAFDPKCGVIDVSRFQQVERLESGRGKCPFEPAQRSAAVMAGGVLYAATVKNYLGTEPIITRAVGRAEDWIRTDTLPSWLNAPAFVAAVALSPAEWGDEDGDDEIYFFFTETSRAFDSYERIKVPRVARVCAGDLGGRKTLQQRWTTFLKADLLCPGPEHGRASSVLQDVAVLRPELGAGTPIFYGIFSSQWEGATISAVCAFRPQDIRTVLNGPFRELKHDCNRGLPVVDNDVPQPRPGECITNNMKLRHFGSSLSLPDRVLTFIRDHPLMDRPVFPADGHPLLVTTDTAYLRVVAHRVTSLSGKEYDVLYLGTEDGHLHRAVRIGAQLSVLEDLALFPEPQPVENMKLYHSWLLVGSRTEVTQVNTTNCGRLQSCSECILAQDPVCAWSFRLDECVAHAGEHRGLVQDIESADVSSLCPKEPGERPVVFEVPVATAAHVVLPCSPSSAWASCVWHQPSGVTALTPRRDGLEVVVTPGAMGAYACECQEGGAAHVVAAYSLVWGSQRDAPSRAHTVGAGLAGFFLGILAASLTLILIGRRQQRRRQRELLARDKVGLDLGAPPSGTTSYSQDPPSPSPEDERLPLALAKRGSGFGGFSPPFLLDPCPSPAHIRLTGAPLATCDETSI
# B2: Mothers against decapentaplegic homolog 4 (Homo sapiens), Q13485 (parent)
# chain: B1 chain
# partner: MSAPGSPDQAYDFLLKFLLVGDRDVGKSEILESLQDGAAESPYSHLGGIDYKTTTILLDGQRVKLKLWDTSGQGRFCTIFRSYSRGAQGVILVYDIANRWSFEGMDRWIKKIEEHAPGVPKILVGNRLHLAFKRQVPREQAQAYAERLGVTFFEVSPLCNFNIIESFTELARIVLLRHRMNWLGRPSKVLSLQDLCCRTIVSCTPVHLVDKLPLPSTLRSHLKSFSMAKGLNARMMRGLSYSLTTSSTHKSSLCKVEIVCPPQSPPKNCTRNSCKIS
# B3: Speckle-type POZ protein (Homo sapiens), O43791 (parent)
# chain: MSRVPSPPPPAEMSSGPVAESWCYTQIKVVKFSYMWTINNFSFCREEMGEVIKSSTFSSGANDKLKWCLRVNPKGLDEESKDYLSLYLLLVSCPKSEVRAKFKFSILNAKGEETKAMESQRAYRFVQGKDWGFKKFIRRDFLLDEANGLLPDDKLTLFCEVSVVQDSVNISGQNTMNMVKVPECRLADELGGLWENSRFTDCCLCVAGQEFQAHKAILAARSPVFSAMFEHEMEESKKNRVEINDVEPEVFKEMMCFIYTGKAPNLDKMADDLLAAADKYALERLKVMCEDALCSNLSVENAAEILILADLHSADQLKTQAVDFINYHASDVLETSGWKSMVVSHPHLVAEAYRSLASAQCPFLGPPRKRLKQS
# partner: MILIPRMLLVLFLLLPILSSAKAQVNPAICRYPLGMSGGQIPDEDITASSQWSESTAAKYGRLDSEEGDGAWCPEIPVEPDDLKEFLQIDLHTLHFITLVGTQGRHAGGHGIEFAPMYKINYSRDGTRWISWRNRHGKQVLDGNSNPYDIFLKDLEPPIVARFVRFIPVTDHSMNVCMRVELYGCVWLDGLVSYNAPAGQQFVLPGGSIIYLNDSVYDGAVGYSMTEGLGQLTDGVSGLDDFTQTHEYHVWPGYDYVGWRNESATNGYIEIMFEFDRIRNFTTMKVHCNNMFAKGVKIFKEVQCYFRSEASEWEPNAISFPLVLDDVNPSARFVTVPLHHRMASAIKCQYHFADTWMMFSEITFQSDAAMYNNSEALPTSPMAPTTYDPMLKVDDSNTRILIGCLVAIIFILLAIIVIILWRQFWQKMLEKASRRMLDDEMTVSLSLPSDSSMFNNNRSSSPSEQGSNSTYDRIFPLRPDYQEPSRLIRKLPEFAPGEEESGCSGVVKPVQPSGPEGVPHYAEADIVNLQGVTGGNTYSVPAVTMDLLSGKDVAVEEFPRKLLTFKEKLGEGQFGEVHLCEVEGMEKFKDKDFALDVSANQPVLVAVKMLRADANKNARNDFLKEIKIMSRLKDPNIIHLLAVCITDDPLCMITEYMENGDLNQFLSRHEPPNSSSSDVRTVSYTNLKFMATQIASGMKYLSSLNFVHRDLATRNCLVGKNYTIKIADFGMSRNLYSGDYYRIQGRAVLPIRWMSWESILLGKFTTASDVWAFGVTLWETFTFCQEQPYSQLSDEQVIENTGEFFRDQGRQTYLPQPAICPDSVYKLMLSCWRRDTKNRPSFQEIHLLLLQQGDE
# B4: Mothers against decapentaplegic homolog 4 (Homo sapiens), Q13485 (parent)
# chain: B1 chain
# partner: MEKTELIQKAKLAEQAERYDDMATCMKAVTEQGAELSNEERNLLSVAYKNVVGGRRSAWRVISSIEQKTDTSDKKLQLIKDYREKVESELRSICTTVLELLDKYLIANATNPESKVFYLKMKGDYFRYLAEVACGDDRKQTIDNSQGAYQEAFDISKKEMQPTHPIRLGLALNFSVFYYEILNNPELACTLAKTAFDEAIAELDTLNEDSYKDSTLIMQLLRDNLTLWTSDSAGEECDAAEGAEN
# Variants of: B1
# Settings: with sem4f_human SEMA4F
row,effect of a mutation on the interaction,Variant
1,with no effect,R361C

# Variants of: B1
# Settings: with sem4f_human SEMA4F
# Remark: another data set of the same source
row,effect of a mutation on the interaction,Variant
1,with no effect,G386D

# Variants of: B1
# Settings: with sem4f_human SEMA4F
# Remark: another data set of the same source
row,effect of a mutation on the interaction,Variant
1,causing an interaction,G386D

# Variants of: B2
# Settings: with rb40a_human RAB40A
row,effect of a mutation on the interaction,Variant
1,with no effect,G386D

# Variants of: B3
# Settings: with ddr2_human DDR2, Q16832
row,effect of a mutation on the interaction,Variant
1,with no effect,F133V

# Variants of: B3
# Settings: with ddr2_human DDR2, Q16832
# Remark: another data set of the same source
row,effect of a mutation on the interaction,Variant
1,with no effect,F133L

# Variants of: B3
# Settings: with ddr2_human DDR2, Q16832
# Remark: another data set of the same source
row,effect of a mutation on the interaction,Variant
1,with no effect,Y87C

# Variants of: B3
# Settings: with ddr2_human DDR2, Q16832
# Remark: another data set of the same source
row,effect of a mutation on the interaction,Variant
1,with no effect,F102C

# Variants of: B4
# Settings: with 1433t_human YWHAQ
row,effect of a mutation on the interaction,Variant
1,with no effect,G386D

# Variants of: B4
# Settings: with 1433t_human YWHAQ
# Remark: another data set of the same source
row,effect of a mutation on the interaction,Variant
1,with no effect,R361H

# Variants of: B4
# Settings: with 1433t_human YWHAQ
# Remark: another data set of the same source
row,effect of a mutation on the interaction,Variant
1,with no effect,R361C
